What was measured:
Assay in all cases: ELISA; thermolysin coated on microtiter plates (100 ul; 10 ug/ml, 16 h, 4 C), blocked with 3% BSA in PBS; C6, C7, C8 or C9 added (100 ul; 0-5 ug/ml) for 1 h at 37 C; detected with goat polyclonal antibodies, absorbance at 492 nm; Kd by non-linear regression Y = Bmax*X/(Kd + X); for C6 also with a fixed amount (1 ug) in 0-600 mM NaCl (reduced only at 600 mM) or 0.05-1 ug heparin (dose-dependent inhibition)
Conditions in all cases: both partners purified
[1] = molecular target: T1, Complement component C7, purified from human plasma (human, UniProt P10643 23-843)
T1 construct: human complement component C7, 95 kDa single chain, purified from plasma; source: bought: Complement Technology (purified from human plasma)

[2] = molecular target: T2, Complement component C8, purified from human plasma (human, UniProt P07357 31-584; P07358 55-591; P07360 21-202)
T2 construct: human complement component C8 alpha chain (~64 kDa), purified from plasma as intact C8; human complement component C8 beta chain (~64 kDa), purified from plasma as intact C8; human complement component C8 gamma chain (~22 kDa), purified from plasma as intact C8; Intact C8 of three polypeptide chains (alpha, beta, gamma); source: bought: Complement Technology (purified from human plasma); copies: …

[3] = molecular target: T3, Complement component C9, purified from human plasma (human, UniProt P02748 22-559)
T3 construct: human complement component C9, single 71 kDa polypeptide chain, purified from plasma; source: bought: Complement Technology (purified from human plasma)

[4] = molecular target: T4, Complement component C6, purified from human plasma (human, UniProt P13671 22-934)
T4 construct: human complement component C6, single polypeptide chain (~100 kDa), purified from plasma; source: bought: Complement Technology (purified from human plasma)
T4 sequence (P13671 22-934): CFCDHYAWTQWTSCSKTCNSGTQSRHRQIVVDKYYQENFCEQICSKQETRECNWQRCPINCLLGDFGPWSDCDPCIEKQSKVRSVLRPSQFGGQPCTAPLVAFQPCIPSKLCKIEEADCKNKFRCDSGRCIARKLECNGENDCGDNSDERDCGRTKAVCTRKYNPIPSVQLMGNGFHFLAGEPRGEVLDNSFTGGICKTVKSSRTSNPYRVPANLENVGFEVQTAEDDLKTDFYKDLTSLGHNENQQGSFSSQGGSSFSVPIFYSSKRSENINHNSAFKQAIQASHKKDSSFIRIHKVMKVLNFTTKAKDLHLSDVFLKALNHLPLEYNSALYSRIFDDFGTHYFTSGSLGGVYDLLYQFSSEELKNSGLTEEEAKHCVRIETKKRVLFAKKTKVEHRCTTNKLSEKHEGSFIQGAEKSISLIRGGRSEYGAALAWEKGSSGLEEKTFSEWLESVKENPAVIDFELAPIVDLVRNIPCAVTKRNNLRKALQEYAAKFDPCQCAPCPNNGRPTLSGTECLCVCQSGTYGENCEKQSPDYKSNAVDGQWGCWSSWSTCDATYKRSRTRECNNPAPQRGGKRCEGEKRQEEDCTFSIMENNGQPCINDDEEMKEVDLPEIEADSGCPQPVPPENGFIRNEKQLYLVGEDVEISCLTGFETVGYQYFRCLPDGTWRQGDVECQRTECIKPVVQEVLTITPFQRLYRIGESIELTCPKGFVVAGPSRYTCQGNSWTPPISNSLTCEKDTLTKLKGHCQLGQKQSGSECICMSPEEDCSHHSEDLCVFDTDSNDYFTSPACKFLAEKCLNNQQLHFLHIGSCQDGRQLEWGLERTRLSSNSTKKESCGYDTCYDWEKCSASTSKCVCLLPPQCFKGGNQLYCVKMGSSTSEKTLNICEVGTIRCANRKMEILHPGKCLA

T1 sequence (P10643 23-843): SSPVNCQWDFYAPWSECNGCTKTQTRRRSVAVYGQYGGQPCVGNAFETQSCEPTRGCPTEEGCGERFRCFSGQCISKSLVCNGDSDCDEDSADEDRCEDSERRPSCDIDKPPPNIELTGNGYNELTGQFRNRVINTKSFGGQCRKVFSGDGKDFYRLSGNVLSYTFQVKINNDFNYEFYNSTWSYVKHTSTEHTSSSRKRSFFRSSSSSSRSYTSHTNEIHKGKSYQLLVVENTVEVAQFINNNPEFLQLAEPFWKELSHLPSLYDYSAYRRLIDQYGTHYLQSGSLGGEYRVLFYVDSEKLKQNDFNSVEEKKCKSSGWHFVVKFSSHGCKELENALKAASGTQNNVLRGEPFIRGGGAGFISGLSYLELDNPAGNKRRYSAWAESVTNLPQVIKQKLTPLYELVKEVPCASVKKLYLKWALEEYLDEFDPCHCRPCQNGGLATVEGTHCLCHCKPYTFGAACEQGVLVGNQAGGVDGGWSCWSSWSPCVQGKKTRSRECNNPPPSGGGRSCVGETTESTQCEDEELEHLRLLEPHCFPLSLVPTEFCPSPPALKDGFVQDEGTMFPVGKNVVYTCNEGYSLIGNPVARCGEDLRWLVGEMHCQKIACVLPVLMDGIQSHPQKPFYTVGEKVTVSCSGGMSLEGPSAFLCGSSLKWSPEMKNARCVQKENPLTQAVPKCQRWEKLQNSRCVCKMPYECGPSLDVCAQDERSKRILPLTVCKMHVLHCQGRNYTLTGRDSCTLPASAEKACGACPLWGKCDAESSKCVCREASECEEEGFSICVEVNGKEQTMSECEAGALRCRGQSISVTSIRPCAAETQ
T2 sequence (P07357 31-584, chain 1 of 3): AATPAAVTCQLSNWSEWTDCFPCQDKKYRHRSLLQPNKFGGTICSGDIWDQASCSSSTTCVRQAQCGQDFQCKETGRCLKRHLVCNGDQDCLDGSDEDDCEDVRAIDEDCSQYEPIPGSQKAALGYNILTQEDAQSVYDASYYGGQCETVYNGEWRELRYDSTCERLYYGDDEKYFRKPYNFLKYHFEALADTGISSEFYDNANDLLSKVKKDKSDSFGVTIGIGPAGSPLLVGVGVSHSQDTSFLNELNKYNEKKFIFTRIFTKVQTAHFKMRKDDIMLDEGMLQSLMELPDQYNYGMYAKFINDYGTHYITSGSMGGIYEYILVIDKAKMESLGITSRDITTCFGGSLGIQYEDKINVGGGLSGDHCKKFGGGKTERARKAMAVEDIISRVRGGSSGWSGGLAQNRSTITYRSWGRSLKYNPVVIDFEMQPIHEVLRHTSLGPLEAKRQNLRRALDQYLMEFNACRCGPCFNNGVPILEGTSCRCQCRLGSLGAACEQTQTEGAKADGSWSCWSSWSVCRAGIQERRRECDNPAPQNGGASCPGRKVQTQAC
T2 sequence (P07358 55-591, chain 2 of 3): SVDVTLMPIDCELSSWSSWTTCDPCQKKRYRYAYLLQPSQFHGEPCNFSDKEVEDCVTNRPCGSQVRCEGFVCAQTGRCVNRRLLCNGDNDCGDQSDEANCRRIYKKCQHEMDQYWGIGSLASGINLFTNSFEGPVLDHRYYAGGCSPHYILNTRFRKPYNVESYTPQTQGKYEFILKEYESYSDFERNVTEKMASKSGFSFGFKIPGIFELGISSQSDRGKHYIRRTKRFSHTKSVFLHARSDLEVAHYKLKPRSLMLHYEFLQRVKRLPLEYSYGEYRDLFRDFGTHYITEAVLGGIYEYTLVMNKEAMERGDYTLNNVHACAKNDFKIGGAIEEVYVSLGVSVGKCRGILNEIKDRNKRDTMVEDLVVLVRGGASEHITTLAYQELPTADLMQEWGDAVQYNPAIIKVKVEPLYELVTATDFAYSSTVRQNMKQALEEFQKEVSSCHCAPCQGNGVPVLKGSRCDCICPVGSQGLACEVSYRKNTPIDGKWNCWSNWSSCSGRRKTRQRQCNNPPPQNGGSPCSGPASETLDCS
T2 sequence (P07360 21-202, chain 3 of 3): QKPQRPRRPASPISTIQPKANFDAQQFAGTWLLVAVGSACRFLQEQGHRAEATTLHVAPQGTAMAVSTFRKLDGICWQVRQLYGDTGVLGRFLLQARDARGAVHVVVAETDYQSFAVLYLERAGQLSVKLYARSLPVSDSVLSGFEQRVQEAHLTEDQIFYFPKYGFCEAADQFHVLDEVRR
T3 sequence (P02748 22-559): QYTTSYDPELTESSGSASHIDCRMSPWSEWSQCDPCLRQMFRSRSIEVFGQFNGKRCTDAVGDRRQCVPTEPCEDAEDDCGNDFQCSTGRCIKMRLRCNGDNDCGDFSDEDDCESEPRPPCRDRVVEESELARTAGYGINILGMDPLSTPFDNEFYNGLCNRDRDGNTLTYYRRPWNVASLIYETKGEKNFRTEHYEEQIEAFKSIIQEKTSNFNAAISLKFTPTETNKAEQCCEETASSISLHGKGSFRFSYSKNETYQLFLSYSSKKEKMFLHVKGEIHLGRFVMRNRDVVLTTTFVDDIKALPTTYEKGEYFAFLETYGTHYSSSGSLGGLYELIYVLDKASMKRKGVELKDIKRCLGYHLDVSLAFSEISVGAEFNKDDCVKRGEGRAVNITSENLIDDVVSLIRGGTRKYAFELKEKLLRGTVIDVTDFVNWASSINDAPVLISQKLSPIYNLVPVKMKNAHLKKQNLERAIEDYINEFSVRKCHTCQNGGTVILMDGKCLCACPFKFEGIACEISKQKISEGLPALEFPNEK

B1: recombinant thermolysin (LIC13322), PepSY-M4 fragment (domain or fragment)
chain: EFYQVPENFNSSPKLSESEALSKTLKHIGAKKYIWESVEREAALKRKKNDPNASYFPKGELLVYEHSLGKSNTKKEFRLAYKFGIASIDPPISRYVYVDSNSGEILSSKDARRYEGVQFPSPKPPIEIDIDYSRCIIDKEYCIEQGTAMTRFSGLQSITTWTAGKTNHFELKDNSRGGGIYTYSWEFVKDPLEDIQLLNIPMIDTNNSWSQSEYHDNYNHDALLDAHWGIEMTYDYFKSIHNRLSYDGDNSRIFNNVHYFNAFVANNAYWDPVTEEIYYVYCPHKNSICKGFNLPILLDPKYEDFTSLDIVSHEFGHGINGDLAGFNLDMEPGALDEGFSDIWNVGVNNYVNKVLGMQKNIWLVGDETVPGGGMRSVSNPKSTTVMSPGPNTYHGDLWDFEDNEAHTNSLVLSHWFYTLSKGKQGFNDYECTYNVSGIGIEKAERIAYVALLFLSSTSGYTSARTYAIIAAKLLYGLFSSEVKSTIDAWDAVAVPAETTSRGGQGMVRPRHYIASVKLSNVTNDSGNDCGYKDNSYLLPTVLRGVTYNMVLLSQGSASNPSKVHKWRVWIDFNQNGSFESSEMVVQDTVNSSFGGTLQKSIKIPTNALTGYAKMRVSMKAAQSGEAYQGSSESFVEGEVEDYIVSILDFSL
- Kd [1]: 17.8 ± 1.3 nM
- Kd [2]: 62 ± 7.1 nM
- Kd [3]: 56.8 ± 5.2 nM
- Kd [4]: 31.8 ± 2.2 nM
